Where two headings read alike, the source gives them in different places.
T1: human EpCAM-Myc-DDK expressed on CHO-K1 cells (human, UniProt P16422 24-314)
T1 construct: whole, on cells; also called EpCAM expressing cells; not shown: Myc-DDK tag of the ORIGENE construct
T1 sequence (looked up): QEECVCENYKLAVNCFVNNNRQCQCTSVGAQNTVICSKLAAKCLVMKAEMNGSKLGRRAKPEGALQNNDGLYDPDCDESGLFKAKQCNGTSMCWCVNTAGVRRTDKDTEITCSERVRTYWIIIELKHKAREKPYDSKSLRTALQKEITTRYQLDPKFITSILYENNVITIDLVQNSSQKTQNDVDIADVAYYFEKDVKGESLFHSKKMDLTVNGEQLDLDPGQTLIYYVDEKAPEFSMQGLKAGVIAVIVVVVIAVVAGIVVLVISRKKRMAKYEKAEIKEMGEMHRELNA

T2: human CLDN4-Myc-DDK expressed on CHO-K1 cells (human, UniProt O14493 1-209)
T2 construct: whole, on cells; also called human CLDN4-Myc-DDK expressing CHO-K1 cells; not shown: Myc-DDK tag of the ORIGENE construct
T2 sequence (looked up): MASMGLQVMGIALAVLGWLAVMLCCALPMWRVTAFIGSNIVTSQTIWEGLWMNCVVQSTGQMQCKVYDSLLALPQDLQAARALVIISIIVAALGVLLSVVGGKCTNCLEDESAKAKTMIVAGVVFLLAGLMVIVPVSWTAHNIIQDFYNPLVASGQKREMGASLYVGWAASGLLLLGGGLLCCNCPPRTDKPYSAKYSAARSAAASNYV

T3: human CLDN4 expressed on CHO-K1 cells (human, UniProt O14493 1-209)
T3 construct: whole, on cells; also called human CLDN4 expressing CHO-K1
T3 sequence (looked up): T2 sequence (looked up)

T4: monkey CD137-His tag-3×FLAG tag fusion protein (monkey)
T4 construct: Residues 1-183 are the encoded extracellular region as stated; also called Monkey CD137-His-3 × FLAG
T4 chain: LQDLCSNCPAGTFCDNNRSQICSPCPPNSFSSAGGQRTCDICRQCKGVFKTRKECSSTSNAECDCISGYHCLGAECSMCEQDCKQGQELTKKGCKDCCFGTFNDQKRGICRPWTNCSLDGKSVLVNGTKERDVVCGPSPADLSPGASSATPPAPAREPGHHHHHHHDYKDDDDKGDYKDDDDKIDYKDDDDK

B1: 3D11 antibody (antibody, V domains shown)
VH: QVQLGQSGPEVKKPGASVKVSCKASGYSFISYGISWVRQAPGQGLEWMGWSSVYNGNTNYVQKFQGRVTMTTDTSASTAYMELRSLRSDDAAVYYCARDSYSSGWSYYYSGMDVWGQGTTVTVSS
VL: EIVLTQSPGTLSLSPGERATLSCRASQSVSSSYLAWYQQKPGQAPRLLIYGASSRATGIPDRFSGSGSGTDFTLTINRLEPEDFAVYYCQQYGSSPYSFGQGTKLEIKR
notes: Purified from the hybridoma supernatant of a VelocImmune mouse: human variable regions with mouse constant regions (chimeric antibody); also called 3D11 clone
B2: anti-CLDN4 (hKM3900)/anti-CD137 scFv bispecific antibody hKM3900_3-34-j6 (bispecific antibody, human IgG1, kappa, L234A L235A)
heavy: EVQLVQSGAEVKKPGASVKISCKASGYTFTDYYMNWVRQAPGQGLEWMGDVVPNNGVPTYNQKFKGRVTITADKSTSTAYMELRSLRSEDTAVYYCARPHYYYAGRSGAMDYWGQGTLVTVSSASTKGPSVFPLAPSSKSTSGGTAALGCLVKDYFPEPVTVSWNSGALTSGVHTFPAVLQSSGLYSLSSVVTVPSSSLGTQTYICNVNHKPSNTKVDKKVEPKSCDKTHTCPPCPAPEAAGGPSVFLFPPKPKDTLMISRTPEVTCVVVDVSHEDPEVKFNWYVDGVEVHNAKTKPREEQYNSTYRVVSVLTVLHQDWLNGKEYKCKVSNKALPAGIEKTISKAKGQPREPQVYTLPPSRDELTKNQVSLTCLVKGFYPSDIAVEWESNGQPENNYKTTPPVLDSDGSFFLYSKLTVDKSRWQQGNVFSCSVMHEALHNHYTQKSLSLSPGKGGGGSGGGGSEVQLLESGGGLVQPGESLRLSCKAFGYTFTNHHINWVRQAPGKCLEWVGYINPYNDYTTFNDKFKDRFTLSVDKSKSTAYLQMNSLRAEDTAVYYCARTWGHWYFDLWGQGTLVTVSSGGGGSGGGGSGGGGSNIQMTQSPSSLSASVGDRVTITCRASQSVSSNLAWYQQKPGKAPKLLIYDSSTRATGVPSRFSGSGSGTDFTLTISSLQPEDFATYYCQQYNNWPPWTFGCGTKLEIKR
light: DIQLTQSPSSLSASVGDRVTITCTASSTVSSTYLHWYQQKPGKAPKLLIYSTSNLASGVPSRFSGSGSGTDYTLTISSLQPEDFATYYCHQYHRSPPTFGQGTKLEIKRTVAAPSVFIFPPSDEQLKSGTASVVCLLNNFYPREAKVQWKVDNALQSGNSQESVTEQDSKDSTYSLSSTLTLSKADYEKHKVYACEVTHQGLSSPVTKSFNRGEC
notes: The heavy chain entry holds the hKM3900 heavy chain (L234A, L235A, P331G), the linker and the 3-34-j6 scFv
B3: anti-CLDN4 (hKM3900)/anti-CD137 scFv bispecific antibody hKM3900_L-3-34-j6 (bispecific antibody)
heavy: EVQLVQSGAEVKKPGASVKISCKASGYTFTDYYMNWVRQAPGQGLEWMGDVVPNNGVPTYNQKFKGRVTITADKSTSTAYMELRSLRSEDTAVYYCARPHYYYAGRSGAMDYWGQGTLVTVSS
light (part 1 of 2): B2 light
light (part 2 of 2): EVQLLESGGGLVQPGESLRLSCKAFGYTFTNHHINWVRQAPGKCLEWVGYINPYNDYTTFNDKFKDRFTLSVDKSKSTAYLQMNSLRAEDTAVYYCARTWGHWYFDLWGQGTLVTVSSGGGGSGGGGSGGGGSNIQMTQSPSSLSASVGDRVTITCRASQSVSSNLAWYQQKPGKAPKLLIYDSSTRATGVPSRFSGSGSGTDFTLTISSLQPEDFATYYCQQYNNWPPWTFGCGTKLEIKR
notes: scFv at the light chain C-terminus; not shown: human IgG1 heavy chain constant region; mutation positions by EU index; GS linker

Experiments:
[1] = target: T1, human EpCAM-Myc-DDK expressed on CHO-K1 …; assay: flow cytometry of the clone supernatant on human EpCAM-Myc-DDK expressing CHO-K1 cells
[2] = target: T2, human CLDN4-Myc-DDK expressed on CHO-K1 …; assay: binding experiment on human CLDN4-Myc-DDK expressing CHO-K1 cells
[3] = target: T5, human CD137-His tag protein (R&D Systems, 9220-4B) (human, UniProt Q07011 24-186); assay: ELISA, human CD137-His tag protein immobilized on the plate, anti-human IgG Fc-HRP, A450-A570
T5 construct: Bought protein; not shown: His tag of the bought protein

[4] = target: T3, human CLDN4 expressed on CHO-K1 cells; assay: flow cytometry on human CLDN4 expressing CHO-K1, apparent KD
[5] = target: T4, monkey CD137-His tag-3×FLAG tag fusion …; assay: SPR, Biacore T200, antibody captured on Protein A chip, CD137 as analyte
[6] = target: T5, human CD137-His tag protein (R&D …); assay: as above
[7] = target: T5, human CD137-His tag protein (R&D …); assay: ELISA, human CD137-His tag protein immobilized on the plate, anti-human IgG Fc-HRP, A450-A570; remark: listed apart in the source
[8] = target: T5, human CD137-His tag protein (R&D …); assay: as above; remark: listed apart in the source

| Binder | binding result [1] | binding result [2] | EC50 (read off the curve) [3] | Kd [4] | Kd [5] | koff [5] | kon [5] | Kd [6] | koff [6] | kon [6] | EC50 (read off the curve) [7] | EC50 (read off the curve) [8] |
| --- | --- | --- | --- | --- | --- | --- | --- | --- | --- | --- | --- | --- |
| B1 | no binding | binds | – | – | – | – | – | – | – | – | – | – |
| B2 | – | – | ~6 ng/mL | 11.2 nM | 10.7 nM | 0.00191 s⁻¹ | 179000 M⁻¹ s⁻¹ | 5.81 nM | 0.00135 s⁻¹ | 232000 M⁻¹ s⁻¹ | ~8 ng/mL | ~10 ng/mL |
| B3 | – | – | ~4 ng/mL | – | – | – | – | – | – | – | – | – |
